Reference: article PMC8484813, “Structure and substrate specificity determinants of NfnB, a dinitroaniline herbicide–catabolizing nitroreductase from Sphingopyxis sp. strain HMH” (The Journal of Biological Chemistry, 2021)

Tests used:
NfnB = biological target: T1, NfnB (Sphingopyxis granuli, UniProt A0A411G9W7); experiment: X-ray crystal structure, […] Å; format: binding; conditions: tag-free protein; FMN in pocket at dimer interface
T1 construct: full-length gene in modified pET28b, N-terminal His6 tag with TEV site, E. coli BL21(DE3); tag kept for activity assays, tag-free for crystals
T1 sequence (A0A411G9W7 1-233): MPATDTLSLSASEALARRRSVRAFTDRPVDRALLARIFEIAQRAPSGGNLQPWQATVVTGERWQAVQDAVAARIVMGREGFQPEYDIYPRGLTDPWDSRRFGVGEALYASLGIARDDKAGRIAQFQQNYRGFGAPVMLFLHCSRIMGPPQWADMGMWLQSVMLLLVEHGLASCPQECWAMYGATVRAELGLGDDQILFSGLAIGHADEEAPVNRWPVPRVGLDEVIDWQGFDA

[1] = biological target: NfnB from Sphingopyxis sp. strain HMH (wildtype) (Sphingopyxis sp. strain HMH); experiment: SEC; Superdex 200 column, buffer A (50 mM Tris pH 8.0, 100 mM NaCl); elution peak compared with the monomeric molecular weight
purified protein [2] = substrate: CCC(C)Nc1c([N+](=O)[O-])cc(C(C)(C)C)cc1[N+](=O)[O-]; experiment: purified protein; format: biochemical, Sphingopyxis granuli; conditions: 50 mM Tris pH 7.5, 30 °C
purified protein [3] = substrate: CCC(CC)Nc1c([N+](=O)[O-])cc(C)c(C)c1[N+](=O)[O-]; experiment: purified protein; format: biochemical, Sphingopyxis granuli; conditions: 50 mM Tris pH 7.5, 30 °C
purified protein [4] = substrate: CCCN(CCC)c1c([N+](=O)[O-])cc(C(C)C)cc1[N+](=O)[O-]; experiment: purified protein; conditions: 50 mM Tris pH 7.5, 30 °C
purified protein [5] = substrate: NC(=O)C1=CN([C@@H]2O[C@H](COP(=O)(O)OP(=O)(O)OC[C@H]3O[C@@H](n4cnc5c(N)ncnc54)[C@H](OP(=O)(O)O)[C@@H]3O)[C@@H](O)[C@H]2O)C=CC1; experiment: purified protein; format: biochemical, Sphingopyxis granuli; conditions: 12.5 μM butralin, 50 mM Tris pH 7.5, 30 °C, electron donor
purified protein [6] = substrate: CCC(C)Nc1c([N+](=O)[O-])cc(C(C)(C)C)cc1[N+](=O)[O-]; experiment: purified protein; conditions: pH 7.5; 30.0 °C
purified protein [7] = substrate: CCC(CC)Nc1c([N+](=O)[O-])cc(C)c(C)c1[N+](=O)[O-]; experiment: purified protein; conditions: pH 7.5; 30.0 °C
purified protein [8] = substrate: NC(=O)C1=CN([C@@H]2O[C@H](COP(=O)(O)OP(=O)(O)OC[C@H]3O[C@@H](n4cnc5c(N)ncnc54)[C@H](OP(=O)(O)O)[C@@H]3O)[C@@H](O)[C@H]2O)C=CC1; experiment: purified protein; conditions: pH 7.5; 30.0 °C

Molecule: Cc1cc2nc3c(=O)[nH]c(=O)nc-3n(C[C@H](O)[C@H](O)[C@H](O)COP(=O)(O)O)c2cc1C [FMN]
- X-ray crystal structure, 2.1 Å (NfnB): We determined the crystal structure of NfnB in the presence of coenzyme FMN

Molecule: NfnB from Sphingopyxis sp. strain HMH (wildtype) (enzyme)
- stoichiometry N [1]: 2

B1: NfnB (Sphingopyxis granuli; Y88A) (protein)
chain: MPATDTLSLSASEALARRRSVRAFTDRPVDRALLARIFEIAQRAPSGGNLQPWQATVVTGERWQAVQDAVAARIVMGREGFQPEYDIAPRGLTDPWDSRRFGVGEALYASLGIARDDKAGRIAQFQQNYRGFGAPVMLFLHCSRIMGPPQWADMGMWLQSVMLLLVEHGLASCPQECWAMYGATVRAELGLGDDQILFSGLAIGHADEEAPVNRWPVPRVGLDEVIDWQGFDA
notes: full-length gene in modified pET28b, N-terminal His6 tag with TEV site, E. coli BL21(DE3); tag kept for activity assays, tag-free for crystals
- Km (purified protein [2]; 200 μM NADPH): 0.59 (0.077) μM
- kcat (purified protein [2]; 200 μM NADPH): 2.1 s⁻¹
- Km (purified protein [3]; 200 μM NADPH): 2.9 (0.18) μM
- kcat (purified protein [3]; 200 μM NADPH): 2.5 s⁻¹
- Km (purified protein [4]; 200 μM NADPH): 0.83 (0.16) μM
- kcat (purified protein [4]; 200 μM NADPH): 1.2 s⁻¹

B2: NfnB (Sphingopyxis granuli; Y88F) (protein)
chain: MPATDTLSLSASEALARRRSVRAFTDRPVDRALLARIFEIAQRAPSGGNLQPWQATVVTGERWQAVQDAVAARIVMGREGFQPEYDIFPRGLTDPWDSRRFGVGEALYASLGIARDDKAGRIAQFQQNYRGFGAPVMLFLHCSRIMGPPQWADMGMWLQSVMLLLVEHGLASCPQECWAMYGATVRAELGLGDDQILFSGLAIGHADEEAPVNRWPVPRVGLDEVIDWQGFDA
notes: as for B1
- Km (purified protein [2]; 100 μM NADPH): 0.81 (0.12) μM
- kcat (purified protein [2]; 100 μM NADPH): 4 s⁻¹
- Km (purified protein [3]; 100 μM NADPH): 1.6 (0.28) μM
- kcat (purified protein [3]; 100 μM NADPH): 3.6 s⁻¹
- Km (purified protein [4]; 100 μM NADPH): 2.7 (0.17) μM
- kcat (purified protein [4]; 100 μM NADPH): 0.66 s⁻¹

B3: NfnB (Sphingopyxis granuli; R100M) (protein)
chain: MPATDTLSLSASEALARRRSVRAFTDRPVDRALLARIFEIAQRAPSGGNLQPWQATVVTGERWQAVQDAVAARIVMGREGFQPEYDIYPRGLTDPWDSRMFGVGEALYASLGIARDDKAGRIAQFQQNYRGFGAPVMLFLHCSRIMGPPQWADMGMWLQSVMLLLVEHGLASCPQECWAMYGATVRAELGLGDDQILFSGLAIGHADEEAPVNRWPVPRVGLDEVIDWQGFDA
notes: as for B1
- Km (purified protein [5]): 95 (20) μM
- kcat (purified protein [5]): 4.9 s⁻¹

B4: NfnB (Sphingopyxis granuli) (protein)
chain: MPATDTLSLSASEALARRRSVRAFTDRPVDRALLARIFEIAQRAPSGGNLQPWQATVVTGERWQAVQDAVAARIVMGREGFQPEYDIYPRGLTDPWDSRRFGVGEALYASLGIARDDKAGRIAQFQQNYRGFGAPVMLFLHCSRIMGPPQWADMGMWLQSVMLLLVEHGLASCPQECWAMYGATVRAELGLGDDQILFSGLAIGHADEEAPVNRWPVPRVGLDEVIDWQGFDA
- Km (purified protein [6]): 2.4 (0.50) μM
- Km (purified protein [7]): 6.8 (1.7) μM
- Km (purified protein [8]): 7.3 (1.4) μM

B5: NfnB (Sphingopyxis granuli; R100A) (protein)
chain: MPATDTLSLSASEALARRRSVRAFTDRPVDRALLARIFEIAQRAPSGGNLQPWQATVVTGERWQAVQDAVAARIVMGREGFQPEYDIYPRGLTDPWDSRAFGVGEALYASLGIARDDKAGRIAQFQQNYRGFGAPVMLFLHCSRIMGPPQWADMGMWLQSVMLLLVEHGLASCPQECWAMYGATVRAELGLGDDQILFSGLAIGHADEEAPVNRWPVPRVGLDEVIDWQGFDA
notes: as for B1
- Km (purified protein [5]): 58 (4.5) μM
- kcat (purified protein [5]): 3.9 s⁻¹
